# Laboratory results from patent US20100260668A1 (published 2010).
# T1: PlGF (UniProt P49763-2 21-149, limits assumed)
# T1 construct: Bought antigen coated on the ELISA plate; also called Placental GF; placental growth factor
# T1 sequence (looked up): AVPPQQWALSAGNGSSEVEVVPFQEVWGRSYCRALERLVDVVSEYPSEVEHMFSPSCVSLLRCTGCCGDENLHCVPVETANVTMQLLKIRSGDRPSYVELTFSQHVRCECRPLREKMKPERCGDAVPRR
# B1: DVD599 (bispecific antibody, human IgG1, kappa)
# heavy: not shown
# light: DIVLTQSPDSLAVSLGERVTMNCKSSQSLLNSGMRKSFLAWYQQKPGQSPKLLIYWASTRESGVPDRFTGSGSGTDFTLTISSVQAEDVAVYYCKQSYHLFTFGSGTKLEIKRTVAAPSVFIFPPDIQMTQSPSSLSASVGDRVTITCRASQVIRRSLAWYQQKPGKAPKLLIYAASNLASGVPSRFSGSGSGTDFTLTISSLQPEDFATYYCQQSNTSPLTFGQGTKVEIKRTVAAPSVFIFPPSDEQLKSGTASVVCLLNNFYPREAKVQWKVDNALQSGNSQESVTEQDSKDSTYSLSSTLTLSKADYEKHKVYACEVTHQGLSSPVTKSFNRGEC
# notes: DVD-Ig, N-terminal PlGF (AB047), C-terminal VEGF (AB071); HC linker short, LC linker long; also called DVD599VH; DVD599VL
# B2: DVD597 (bispecific antibody, human IgG1, kappa)
# heavy: not shown
# light: DIVLTQSPDSLAVSLGERVTMNCKSSQSLLNSGMRKSFLAWYQQKPGQSPKLLIYWASTRESGVPDRFTGSGSGTDFTLTISSVQAEDVAVYYCKQSYHLFTFGSGTKLEIKRTVAAPSVFIFPPDIQMTQSPSSLSASVGDRVTITCRASQDVSTAVAWYQQKPGKAPKLLIYSASFLYSGVPSRFSGSGSGTDFTLTISSLQPEDFATYYCQQSYTTPPTFGQGTKVEIKRTVAAPSVFIFPPSDEQLKSGTASVVCLLNNFYPREAKVQWKVDNALQSGNSQESVTEQDSKDSTYSLSSTLTLSKADYEKHKVYACEVTHQGLSSPVTKSFNRGEC
# notes: HC linker short, LC linker long; also called DVD597VH; DVD597VL
# B3: DVD591 (bispecific antibody, human IgG1, kappa)
# heavy: not shown
# light: DIVLTQSPDSLAVSLGERVTMNCKSSQSLLNSGMRKSFLAWYQQKPGQSPKLLIYWASTRESGVPDRFTGSGSGTDFTLTISSVQAEDVAVYYCKQSYHLFTFGSGTKLEIKRTVAAPDIQMTQSPSSLSASVGDRVTITCRASQVIRRSLAWYQQKPGKAPKLLIYAASNLASGVPSRFSGSGSGTDFTLTISSLQPEDFATYYCQQSNTSPLTFGQGTKVEIKRTVAAPSVFIFPPSDEQLKSGTASVVCLLNNFYPREAKVQWKVDNALQSGNSQESVTEQDSKDSTYSLSSTLTLSKADYEKHKVYACEVTHQGLSSPVTKSFNRGEC
# notes: DVD-Ig, N-terminal PlGF (AB047), C-terminal VEGF (AB071); HC linker long, LC linker short; also called DVD591VH; DVD591VL
# B4: DVD589 (bispecific antibody, human IgG1, kappa)
# heavy: not shown
# light: DIVLTQSPDSLAVSLGERVTMNCKSSQSLLNSGMRKSFLAWYQQKPGQSPKLLIYWASTRESGVPDRFTGSGSGTDFTLTISSVQAEDVAVYYCKQSYHLFTFGSGTKLEIKRTVAAPDIQMTQSPSSLSASVGDRVTITCRASQDVSTAVAWYQQKPGKAPKLLIYSASFLYSGVPSRFSGSGSGTDFTLTISSLQPEDFATYYCQQSYTTPPTFGQGTKVEIKRTVAAPSVFIFPPSDEQLKSGTASVVCLLNNFYPREAKVQWKVDNALQSGNSQESVTEQDSKDSTYSLSSTLTLSKADYEKHKVYACEVTHQGLSSPVTKSFNRGEC
# notes: HC linker long, LC linker short; also called DVD589VH; DVD589VL
# B5: DVD476 (VEGF (seq. 1) N-terminal / DLL4 (seq. 1) C-terminal DVD-Ig, long HC linker, short LC linker) (bispecific antibody, human IgG1, kappa)
# heavy: not shown
# light: DIQMTQSPSSLSASVGDRVTITCSASQDISNYLNWYQQKPGKAPKVLIYFTSSLHSGVPSRFSGSGSGTDFTLTISSLQPEDFATYYCQQYSTVPWTFGQGTKVEIKRTVAAPDIQMTQSPSSLSASVGDRVTITCRASQDVSTAVAWYQQKPGKAPKLLIYSASFLYSGVPSRFSGSGSGTDFTLTISSLQPEDFATTYYCQQSYTGTVTFGQGTKVEIKRTVAAPSVFIFPPSDEQLKSGTASVVCLLNNFYPREAKVQWKVDNALQSGNSQESVTEQDSKDSTYSLSSTLTLSKADYEKHKVYACEVTHQGLSSPVTKSFNRGEC
# notes: also called DVD476H/DVD476L
# B6: DVD471 (DLL4 (seq. 1) N-terminal / VEGF (AB070) C-terminal DVD-Ig, long HC linker, long LC linker) (bispecific antibody, human IgG1, kappa, L234A L235A)
# heavy: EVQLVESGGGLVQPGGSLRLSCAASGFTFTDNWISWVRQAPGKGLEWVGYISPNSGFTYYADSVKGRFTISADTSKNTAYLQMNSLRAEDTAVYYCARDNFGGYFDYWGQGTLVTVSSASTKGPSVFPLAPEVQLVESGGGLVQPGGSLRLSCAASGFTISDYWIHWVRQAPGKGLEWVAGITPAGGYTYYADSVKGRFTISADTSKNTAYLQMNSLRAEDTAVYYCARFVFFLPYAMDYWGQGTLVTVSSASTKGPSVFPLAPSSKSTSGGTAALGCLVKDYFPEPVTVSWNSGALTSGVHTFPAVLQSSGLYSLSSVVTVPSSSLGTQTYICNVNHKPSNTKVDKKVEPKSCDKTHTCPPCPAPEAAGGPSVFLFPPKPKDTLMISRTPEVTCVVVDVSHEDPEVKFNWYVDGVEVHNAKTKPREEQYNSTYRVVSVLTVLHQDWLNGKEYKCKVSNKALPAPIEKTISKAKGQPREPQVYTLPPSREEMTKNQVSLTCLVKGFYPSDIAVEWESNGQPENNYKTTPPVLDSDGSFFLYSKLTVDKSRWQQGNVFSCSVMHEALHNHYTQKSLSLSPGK
# light: DIQMTQSPSSLSASVGDRVTITCRASQDVSTAVAWYQQKPGKAPKLLIYSASFLYSGVPSRFSGSGSGTDFTLTISSLQPEDFATTYYCQQSYTGTVTFGQGTKVEIKRTVAAPSVFIFPPDIQMTQSPSSLSASVGDRVTITCRASQDVSTAVAWYQQKPGKAPKLLIYSASFLYSGVPSRFSGSGSGTDFTLTISSLQPEDFATYYCQQSYTTPPTFGQGTKVEIKRTVAAPSVFIFPPSDEQLKSGTASVVCLLNNFYPREAKVQWKVDNALQSGNSQESVTEQDSKDSTYSLSSTLTLSKADYEKHKVYACEVTHQGLSSPVTKSFNRGEC
# notes: also called DVD471H/DVD471L
# B7: DVD470 (VEGF (seq. 1) N-terminal / DLL4 (seq. 1) C-terminal DVD-Ig, long HC linker, long LC linker) (bispecific antibody, human IgG1, kappa)
# heavy: not shown
# light: DIQMTQSPSSLSASVGDRVTITCSASQDISNYLNWYQQKPGKAPKVLIYFTSSLHSGVPSRFSGSGSGTDFTLTISSLQPEDFATYYCQQYSTVPWTFGQGTKVEIKRTVAAPSVFIFPPDIQMTQSPSSLSASVGDRVTITCRASQDVSTAVAWYQQKPGKAPKLLIYSASFLYSGVPSRFSGSGSGTDFTLTISSLQPEDFATTYYCQQSYTGTVTFGQGTKVEIKRTVAAPSVFIFPPSDEQLKSGTASVVCLLNNFYPREAKVQWKVDNALQSGNSQESVTEQDSKDSTYSLSSTLTLSKADYEKHKVYACEVTHQGLSSPVTKSFNRGEC
# notes: also called DVD470H/DVD470L
# B8: DVD482 (VEGF (seq. 1) N-terminal / DLL4 (seq. 1) C-terminal DVD-Ig, short HC linker, long LC linker) (bispecific antibody, human IgG1, kappa)
# heavy: not shown
# light: B7 light
# notes: also called DVD482H/DVD482L
# B9: DVD467 (bispecific antibody, human IgG1, kappa)
# heavy: not shown
# light: DIQMTQSPSSLSASVGDRVTITCRASQDVSTAVAWYQQKPGKAPKLLIYSASFLYSGVPSRFSGSGSGTDFTLTISSLQPEDFATTYYCQQSYTGTVTFGQGTKVEIKRTVAAPDIQMTQSPSSLSASVGDRVTITCRASQVIRRSLAWYQQKPGKAPKLLIYAASNLASGVPSRFSGSGSGTDFTLTISSLQPEDFATYYCQQSNTSPLTFGQGTKVEIKRTVAAPSVFIFPPSDEQLKSGTASVVCLLNNFYPREAKVQWKVDNALQSGNSQESVTEQDSKDSTYSLSSTLTLSKADYEKHKVYACEVTHQGLSSPVTKSFNRGEC
# notes: DVD-Ig; outer AB015 (DLL4), inner AB071 (VEGF); HC short, LC short linker; also called DVD467H; DVD467L
# B10: DVD476 (bispecific antibody, human IgG1, kappa)
# heavy: not shown
# light: B5 light
# notes: DVD-Ig; also called VEGF and DLL4 DVD-Ig, HC linker long, LC linker short
# B11: DVD474 (bispecific antibody, human IgG1, kappa)
# heavy: not shown
# light: DIQMTQSPSSLSASVGDRVTITCRASQVIRRSLAWYQQKPGKAPKLLIYAASNLASGVPSRFSGSGSGTDFTLTISSLQPEDFATYYCQQSNTSPLTFGQGTKVEIKRTVAAPSVFIFPPDIQMTQSPSSLSASVGDRVTITCRASQDVSTAVAWYQQKPGKAPKLLIYSASFLYSGVPSRFSGSGSGTDFTLTISSLQPEDFATTYYCQQSYTGTVTFGQGTKVEIKRTVAAPSVFIFPPSDEQLKSGTASVVCLLNNFYPREAKVQWKVDNALQSGNSQESVTEQDSKDSTYSLSSTLTLSKADYEKHKVYACEVTHQGLSSPVTKSFNRGEC
# notes: DVD-Ig; outer AB071 (VEGF), inner AB015 (DLL4); also called VEGF and DLL4 DVD-Ig, HC linker long, LC linker long
# B12: DVD486 (bispecific antibody, human IgG1, kappa)
# heavy: not shown
# light: B11 light
# notes: DVD-Ig; outer AB071 (VEGF), inner AB015 (DLL4); also called VEGF and DLL4 DVD-Ig, HC linker short, LC linker long
# B13: DVD482 (bispecific antibody, human IgG1, kappa)
# heavy: not shown
# light: B7 light
# notes: DVD-Ig; also called VEGF and DLL4 DVD-Ig, HC linker short, LC linker long
# B14: DVD470 (bispecific antibody, human IgG1, kappa)
# heavy: not shown
# light: B7 light
# notes: DVD-Ig; also called VEGF and DLL4 DVD-Ig, HC linker long, LC linker long
# Molecular target: T2, VEGF (UniProt P15692 27-191, limits assumed)
# T2 construct: Bought antigen coated on the ELISA plate; also called vascular endothelial growth factor
# T2 sequence (P15692 other isoform, or with tags, fused parts or gaps limits assumed): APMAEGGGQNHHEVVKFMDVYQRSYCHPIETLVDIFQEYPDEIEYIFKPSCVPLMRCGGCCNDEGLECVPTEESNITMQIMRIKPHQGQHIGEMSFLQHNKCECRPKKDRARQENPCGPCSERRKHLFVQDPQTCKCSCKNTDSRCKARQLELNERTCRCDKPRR
# Assay: direct bind ELISA, antigen on plate; C-terminal VD
# Experimental: (§1) Enzyme Linked Immunosorbent Assays to screen for antibodies that bind a desired target antigen were performed as follows. […] Plates were washed four times with PBS containing 0.02% Tween 20. Plates were blocked by the addition of 300 μL/well blocking solution (non-fat dry milk powder, various retail suppliers, diluted to 2% in PBS) for ½ hour at room temperature. Plates were washed four times after blocking with PBS containing 0.02% Tween 20.
# (§2) Plates were washed 4 times with PBS containing 0.02% Tween 20.
row,EC50 [nM],Binder
1,664,B1
2,31.1,B2
3,1170,B3
4,1360,B4

# Molecular target: T1, PlGF
# Assay: direct bind ELISA, antigen on plate; N-terminal VD
# Experimental: as §1, §2
row,EC50 [nM],Binder
1,0.23,B1
2,0.17,B2
3,0.13,B3
4,0.12,B4

# Molecular target: T3, human DLL4 on 293G-human DLL4 cells (human, UniProt Q9NR61 27-685)
# T3 construct: whole, on cells; no method paragraph describes this FACS assay
# Assay: FACS: inhibition of Notch1 binding to 293G-human DLL4 cells (competitor Notch1)
row,IC50 [nM],Binder
1,15.1,B5
2,4.1,B6
3,38.3,B7
4,16.3,B8

# Molecular target: T4, human DLL4 extracellular domain (human, UniProt Q9NR61 27-529, biotin label in the Notch-1 competition ELISA (sites not given))
# T4 construct: extracellular domain; also called biotin labeled human DLL4 extracellular domain
# Assay: competition ELISA: 14 nM biotin-labelled human DLL4 ECD pre-mixed with DVD-Ig, then on coated human Notch-1 (competitor Notch-1)
row,IC50 [nM],Binder
1,4.9,B5
2,2.66,B6
3,2.82,B7
4,2.65,B8

# Molecular target: T5, VEGF (biotinylated VEGF; VEGF165) (UniProt P15692-4 27-191, biotinylated (sites not given))
# T5 construct: the method paragraph says only 'biotinylated VEGF'
# T5 sequence (P15692 other isoform, or with tags, fused parts or gaps limits assumed): as above
# Assay: competition ELISA: DVD-Ig pre-incubated with 2 nM biotinylated VEGF, then on coated VEGFR1 ECD-Fc (competitor VEGFR1-Fc)
row,IC50 [nM],Binder
1,2.4,B5
2,5.46,B6
3,2.7,B7
4,1.7,B8

# Molecular target: T6, DLL4 ECD/His tag (R&D 1506-D4-050) (UniProt Q9NR61 27-529)
# T6 construct: extracellular domain; Bought antigen coated on the ELISA plate; not shown: His tag
# Assay: direct bind ELISA, DLL4 on plate; DLL4 VD N-term.; HC Short, LC Short
row,EC50 [nM],Binder
1,0.54,B9

# Molecular target: T7, DLL4 (human, UniProt Q9NR61 27-685)
# T7 construct: whole, on cells; also called human DLL4
# Assay: flow cytometry on 293G-human DLL4 cells; DLL4 VD C-terminal
row,EC50 [nM],Binder
1,11.7,B10
2,2.19,B11
3,2.09,B12
4,3.25,B13
5,1.72,B14

# Molecular target: T4, human DLL4 extracellular domain
# Assay: cell-based or functional assay
row,"DVD-Ig Inhibition of sFlt1 (IC50, nM) [nM]",Binder
1,1.68,B5
2,1.92,B6
3,1.02,B7
4,1.11,B8
